Test results published in patent US20240238439A1, “HER3-BINDING ANTIBODY-DRUG CONJUGATE” (priority 2023, published 2024).

Tests used:
[1] = molecular target: HER3 on the surface of human cancer cell lines (HCT116, DU145, H358, T-47D, OVCAR8) (UniProt P21860); experiment: flow cytometry; HCT116 cells
[2] = molecular target: HER3 on the surface of human cancer cell lines (HCT116, DU145, H358, T-47D, OVCAR8) (UniProt P21860); experiment: flow cytometry; DU145 cells
[3] = molecular target: HER3 on the surface of human cancer cell lines (HCT116, DU145, H358, T-47D, OVCAR8) (UniProt P21860); experiment: flow cytometry; H358 cells
[4] = molecular target: HER3 on the surface of human cancer cell lines (HCT116, DU145, H358, T-47D, OVCAR8) (UniProt P21860); experiment: flow cytometry; OVCAR8 cells
FCɣR IA (CD64) (human) = FCɣR IA (CD64) (human) (UniProt P12314); experiment: SPR
FCɣR IIA (CD32a) (human) = FCɣR IIA (CD32a) (human) (UniProt P12318); experiment: SPR
Sequence of FCɣR IIA (CD32a) (human) (P12318 34-217): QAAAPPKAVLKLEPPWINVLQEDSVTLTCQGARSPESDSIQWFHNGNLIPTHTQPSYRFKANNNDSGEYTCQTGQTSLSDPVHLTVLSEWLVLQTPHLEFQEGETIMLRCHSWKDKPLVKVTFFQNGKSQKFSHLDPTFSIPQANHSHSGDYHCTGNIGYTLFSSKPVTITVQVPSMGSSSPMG

Sequence of FCɣR IA (CD64) (human) (P12314 16-288): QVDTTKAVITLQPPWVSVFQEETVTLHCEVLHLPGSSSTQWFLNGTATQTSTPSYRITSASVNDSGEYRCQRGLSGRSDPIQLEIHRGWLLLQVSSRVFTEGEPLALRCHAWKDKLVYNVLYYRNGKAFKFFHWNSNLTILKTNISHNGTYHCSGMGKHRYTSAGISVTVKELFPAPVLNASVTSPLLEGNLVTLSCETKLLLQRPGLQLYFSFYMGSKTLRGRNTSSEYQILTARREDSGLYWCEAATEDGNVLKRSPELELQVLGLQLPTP

Row | EC50 [1] | EC50 [2] | EC50 [3] | EC50 [4] | Kd (FCɣR IA (CD64) (human)) | Kd (FCɣR IIA (CD32a) (human)) | Substance
1 | 0.756 nM | 2.4 nM | 8.23 nM | 1.01 nM | – | – | Patritumab-DXd
2 | – | – | – | – | 6.5 nM | 56.9 nM | Human IgG1 (+ve control)
